Laboratory results reported in PMC4357503.

Experiments:
GST-Puf1p = biological target: T1, GST-Puf1p (UniProt P47135 1-1091); assay: EMSA
T1 sequence: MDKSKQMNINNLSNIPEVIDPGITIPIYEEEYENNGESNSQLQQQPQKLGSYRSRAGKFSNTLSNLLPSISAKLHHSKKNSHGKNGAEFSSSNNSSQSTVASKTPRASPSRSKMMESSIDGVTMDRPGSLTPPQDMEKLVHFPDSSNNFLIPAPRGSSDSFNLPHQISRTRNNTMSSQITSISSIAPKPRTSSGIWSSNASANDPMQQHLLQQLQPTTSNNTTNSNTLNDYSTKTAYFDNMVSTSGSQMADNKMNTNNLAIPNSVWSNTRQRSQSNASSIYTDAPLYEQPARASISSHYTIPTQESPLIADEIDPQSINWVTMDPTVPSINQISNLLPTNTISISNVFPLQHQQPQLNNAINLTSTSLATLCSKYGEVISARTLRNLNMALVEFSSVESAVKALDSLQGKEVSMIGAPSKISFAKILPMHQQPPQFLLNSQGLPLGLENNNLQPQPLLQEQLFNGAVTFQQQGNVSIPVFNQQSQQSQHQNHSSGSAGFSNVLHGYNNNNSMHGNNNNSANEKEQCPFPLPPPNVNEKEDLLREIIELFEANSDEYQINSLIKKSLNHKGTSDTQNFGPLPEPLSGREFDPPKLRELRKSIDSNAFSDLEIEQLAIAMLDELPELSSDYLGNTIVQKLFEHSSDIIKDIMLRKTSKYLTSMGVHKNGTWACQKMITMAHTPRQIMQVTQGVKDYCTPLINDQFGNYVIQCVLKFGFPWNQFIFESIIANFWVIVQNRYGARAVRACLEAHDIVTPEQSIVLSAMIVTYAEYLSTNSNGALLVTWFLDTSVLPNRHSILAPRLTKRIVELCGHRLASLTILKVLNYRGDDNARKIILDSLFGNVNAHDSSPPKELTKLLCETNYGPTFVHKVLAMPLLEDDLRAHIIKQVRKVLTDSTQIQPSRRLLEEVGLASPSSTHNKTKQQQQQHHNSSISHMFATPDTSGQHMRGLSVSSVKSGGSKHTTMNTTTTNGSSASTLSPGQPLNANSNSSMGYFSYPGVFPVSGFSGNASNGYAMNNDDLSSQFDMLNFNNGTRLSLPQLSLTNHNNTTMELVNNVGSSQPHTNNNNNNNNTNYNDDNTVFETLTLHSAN

GST-Puf4p = biological target: T2, GST-Puf4p (UniProt P25339 1-888); assay: EMSA
T2 sequence: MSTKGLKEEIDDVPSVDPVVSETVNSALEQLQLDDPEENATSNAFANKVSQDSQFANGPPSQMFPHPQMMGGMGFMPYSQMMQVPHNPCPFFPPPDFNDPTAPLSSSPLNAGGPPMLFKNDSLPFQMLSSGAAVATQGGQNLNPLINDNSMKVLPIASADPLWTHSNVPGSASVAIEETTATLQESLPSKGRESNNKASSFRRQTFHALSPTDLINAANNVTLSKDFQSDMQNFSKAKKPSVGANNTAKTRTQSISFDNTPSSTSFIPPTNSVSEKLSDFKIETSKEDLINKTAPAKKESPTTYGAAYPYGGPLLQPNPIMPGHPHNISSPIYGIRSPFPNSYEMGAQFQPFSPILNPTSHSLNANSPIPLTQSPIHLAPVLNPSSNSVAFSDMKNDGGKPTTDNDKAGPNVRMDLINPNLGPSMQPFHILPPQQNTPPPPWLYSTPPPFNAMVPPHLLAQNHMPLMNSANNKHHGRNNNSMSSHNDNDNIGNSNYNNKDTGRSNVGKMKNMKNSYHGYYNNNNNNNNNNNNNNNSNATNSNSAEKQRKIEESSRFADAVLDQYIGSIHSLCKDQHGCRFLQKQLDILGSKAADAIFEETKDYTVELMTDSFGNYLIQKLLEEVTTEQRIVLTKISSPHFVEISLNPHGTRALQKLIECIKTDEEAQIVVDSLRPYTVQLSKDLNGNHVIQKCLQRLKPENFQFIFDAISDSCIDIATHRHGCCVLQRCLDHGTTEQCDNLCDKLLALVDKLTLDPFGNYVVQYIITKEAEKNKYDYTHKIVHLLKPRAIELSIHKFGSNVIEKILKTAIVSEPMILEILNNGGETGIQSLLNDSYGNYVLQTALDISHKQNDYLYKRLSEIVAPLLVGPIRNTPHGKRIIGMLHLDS

GUAAAGAUUGUGUAUGUAUUUAUAAGAUGAAUA (ssRNA) [YHB1 WT PRE (oWO898)]: binds (GST-Puf1p); binds (GST-Puf4p).
